Measurements: US11026972B2, “Methods for generating macrophages with enhanced cancer phagocytosis” (Georgia State University Research Foundation, Inc., priority 2016, dated 2021)

B1: IL-17: recombinant murine cytokine interleukin IL-17 (also known as IL-17A), PeproTech (protein, UniProt Q62386 26-158, looked up)
Interleukin-17A: AAIIPQSSACPNTEAKDFLQNVKVNLKVFNSLGAKVSSRRPSDYLNRSTSPWTLHRNEDPDRYPSVIWEAQCRHQRCVNAEGKLDHHMNSVLIQQEILVLKREPESCPFTFRVEKMLVGVGCTCVASIVRQAA

Legend:
[1] = system: SIRPα^−/− and CD47^−/− mice; assay: Acute anemia and splenomegaly in mice deficient of CD47-SIRPα-mediated inhibition under inflammatory conditions; type: in vivo, mouse
Source text: FIGS. 1A-1K illustrate our assessment of acute anemia in mice deficient of CD47-SIRPα-mediated inhibition under inflammatory conditions. FIG. 1A includes a schematic drawing of a wild type (WT) and targeted allele of SIRPα (“SIRPα”) and data related to the generation of SIRPα “knock out” (KO) mice. […] Western blot (WB) analysis confirmed the depletion of SIRPα (˜120 kDa) protein in bone marrow leukocytes from SIRPα^−/− mice. FIG. 1B includes a photograph of intestinal tissue and a line graph charting the change in body weight of mice in which colitis had been induced by treatment with 1% or 2% DSS. […] FIGS. 1C and 1D include data related to acute anemia and splenomegaly developed in SIRPα^−/− mice with colitis. WT mice and SIRPα^−/− mice treated with DSS (2% DSS for WT and 1% DSS for SIRPα^−/−) for 10 days were analyzed for the presence of […] (FIG. 1C) and the content of hemoglobin in peripheral blood (FIG. 1D). FIG. 1E includes a panel of photomicrographs in which hematoxylin and eosin (H&E) was used to stain sections of spleens from WT and SIRPα^−/− mice treated with 2% and 1% DSS for 10 days. The bar graph of FIG. 1E illustrates the hemoglobin content in the spleens of WT and SIRPα^−/− mice treated with water or DSS. FIG. 1F is a pair of line graphs showing the time course over which anemia developed in SIRPα^−/− mice when colitis was induced with DSS and the levels of IL-17 in the serum over that same period of time. FIG. 1G is a diagram showing that IL-17 neutralization ameliorates anemia and splenomegaly in SIRPα^−/− mice with colitis. An anti-IL-17 antibody (10 μg, i.v.) was given on days 6 and 8 (arrows) during DSS-induction of colitis. FIG. 1H is a diagram showing that IL-17-containing colitic serum induces acute anemia in SIRPα^−/− mice. Serum samples collected from healthy (Ctl.) and colitic WT mice (2% DSS, 10 d) were administered to healthy SIRPα^−/− mice (i.v., 3×, arrows) with or without an anti-IL-17 antibody. FIGS. 1I and 1J are illustrative graphs showing that IL-17 directly induces acute anemia and splenomegaly in SIRPα^−/− mice and Cd47^−/− mice. Healthy mice were given recombinant IL-17 (10 μg/kg, i.v.) on days 1 and 3 (arrows, FIG. 1J); anemia and splenomegaly were analyzed on day 5 (FIG. 1I) or in a time course manner (FIG. 1J). FIG. 1K includes diagrams showing that acute anemia and splenomegaly in SIRPα^−/− and Cd47^−/− mice under zymosan-peritonitis (3×, every other day), IL-6 administration ([…], i.v.), LPS (0.25 mg/kg, i.p.), and CFA (1×, s.c.) administrations. Error bars are ±SEM **P<0.01, ***P<0.001 vs. control or the beginning time point. Data presented in each panel represent at least three independent experiments with n≥4, if applicable.
Hemoglobin assay: To assay blood hemoglobin, 10 μl of whole blood were obtained from the tail vein followed by lysis in 1 ml distilled water. After centrifugation (13,000 rpm, 30 min), the hemoglobin-containing supernatants were collected and measured for the optical density at the wavelength of 540 nm.
Animal inflammation models: To induce peritonitis, mice (6-8 wk, 20-22 g) were intraperitoneally injected with 0.5 mg zymosan A (Sigma) in 0.5 ml sterile PBS followed by euthanasia at 2, 4, 6 and 8 hours. […] The colitic condition was then assessed by observing diarrhea, measuring body weight loss, increases of inflammatory cytokines, the shortage of the large intestine and intestinal tissue analyses (after euthanasia). […]

SIRPα = SIRPα immunoprecipitation and WB detection of SIRPα ITIM phosphorylation and SHP-1 association; type: cell-based, mouse; details: WT macrophages after LPS or IL-17 treatment
Protocol: FIGS. 4A-4E include data related to our experiments on macrophage phagocytic plasticity. FIG. 4A is a panel of illustrative line graphs showing that IL-10 inhibits macrophage phagocytosis toward “self.” PEMs were treated with LPS and activating cytokines along with various concentrations of IL-10 before testing their ability to phagocytose RBCs. FIG. 4B illustrates the phagocytic plasticity of WT red pulp macrophages. […] Treatments of cultured macrophages with LPS and IL-17 re-elicited their phagocytosis toward RBCs. […] Error bars are ±SEM. ***P<0.001 vs. freshly isolated splenic macrophages. FIG. 4D includes microscopic images of RBC phagocytosis by LPS- and IL-17-treated splenic macrophages. […] WT PEMs treated with LPS or IL-17 were further treated with Cd47^+ RBCs or Cd47-AP (10 min, 37° C.) followed by cell lysis, SIRPα immunoprecipitation, and WB detection of SIRPα phosphorylation (SIRPα^pY) and SHP-1 association. Data presented in each panel represent at least three independent experiments with n≥4, if applicable.
FIGS. 5A-5H include data related to our experiments on the role of Syk in phagocytic activation. […] PEMs were treated with LPS and cytokines in the presence of various inhibitors. After washing, inhibitor-free macrophages were tested for phagocytosis toward RBCs. […] PEMs treated with LPS and activating cytokines, or together with IL-10, were tested for total Syk and phosphorylated Syk (Syk^pY, specific at Y519/520). FIG. 5D describes PMA-induced macrophages phagocytosis toward RBCs. WT and SIRPα^−/− PEMs were treated with PMA (37° C., 30 min) before testing phagocytosis toward RBCs. FIG. 5E is a schematic depiction of PKC-Syk-mediated macrophage phagocytic activation toward self. […] Left: Inhibition of Syk by piceatannol and R406 prevented PMA-induced phagocytic activation. […] Error bars are ±SEM. ***P<0.001 vs. the respective controls. […] LPS-treated WT PEMs were further briefly treated with pervanadate before testing for phagocytosis toward RBCs. Error bars are ±SEM. ***P<0.001 vs. the respective controls. […]

Molecule	anemia and splenomegaly ([1]; SIRPα^−/− and CD47^−/− mice, zymosan 3 times every other day, IL-6 2×10 μg/kg i.v., LPS 0.25 mg/kg i.p., CFA s.c.)	SIRPα ITIM phosphorylation and SHP-1 association (SIRPα)	acute anemia and splenomegaly ([1]; CD47^−/− mice, IL-17 injection)	acute anemia and splenomegaly ([1]; healthy SIRPα^−/− mice, 2×10 μg/kg, i.v.)
lipopolysaccharide [LPS]	induced anemia and splenomegaly	a level of SIRPα ITIM phosphorylation and SHP-1 association even in the absence of extracellular CD47 ligation	–	–
B1	–	a level of SIRPα ITIM phosphorylation and SHP-1 association even in the absence of extracellular CD47 ligation	induced acute anemia and splenomegaly	directly induced acute anemia and splenomegaly
